# Experiments:
# Conditions in all cases: source organism: Cryptosporidium parvum Iowa II
# HLA-A*02:01 = test: IEDB peptide-MHC binding, purified MHC/direct/fluorescence; filed as Kd, often an IC50 or EC50 that approximates it; ≥ and ≤ were set here for values at or beyond the usual limits of such assays
# HLA-A*02:03 = test: as above
# HLA-A*02:12 = test: as above
# HLA-A*02:16 = test: as above
# HLA-A*02:19 = test: as above
# HLA-A*03:01 = test: as above
# HLA-A*23:01 = test: as above
# HLA-A*24:03 = test: as above
# HLA-A*26:01 = test: as above
# HLA-A*29:02 = test: as above
# HLA-A*68:02 = test: as above
# HLA-B*15:01 = test: as above
# HLA-B*15:17 = test: as above
# HLA-B*18:01 = test: as above
# HLA-B*27:03 = test: as above
# HLA-B*39:01 = test: as above
# HLA-B*46:01 = test: as above
# HLA-B*57:01 = test: as above
# HLA-A*30:01 = test: IEDB peptide-MHC binding, purified MHC/competitive/fluorescence; filed as Kd, often an IC50 or EC50 that approximates it; ≥ and ≤ were set here for values at or beyond the usual limits of such assays
# HLA-A*30:02 = test: as above
# HLA-A*66:01 = test: as above
# HLA-B*08:01 = test: as above
# HLA-B*40:01 = test: as above
# HLA-B*44:02 = test: as above
# HLA-B*58:01 = test: as above
sequence,measurement,setting,value
TVFRNQNRV,Kd,HLA-A*02:01,≥ 20 µM
same,Kd,HLA-A*02:03,≥ 20 µM
same,Kd,HLA-A*02:12,≥ 20 µM
same,Kd,HLA-A*02:16,≥ 20 µM
same,Kd,HLA-A*02:19,≥ 20 µM
same,Kd,HLA-A*03:01,≥ 20 µM
same,Kd,HLA-A*23:01,≥ 20 µM
same,Kd,HLA-A*24:03,≥ 20 µM
same,Kd,HLA-A*26:01,≥ 20 µM
same,Kd,HLA-A*29:02,≥ 20 µM
same,Kd,HLA-A*68:02,≤ 0.001 µM
same,Kd,HLA-B*15:01,≥ 20 µM
same,Kd,HLA-B*15:17,≥ 20 µM
same,Kd,HLA-B*18:01,≥ 20 µM
same,Kd,HLA-B*27:03,≥ 20 µM
same,Kd,HLA-B*39:01,≥ 20 µM
same,Kd,HLA-B*46:01,≥ 20 µM
same,Kd,HLA-B*57:01,≥ 20 µM
same,Kd,HLA-A*30:01,≥ 5 µM
same,Kd,HLA-A*30:02,≥ 5 µM
same,Kd,HLA-A*66:01,≥ 5 µM
same,Kd,HLA-B*08:01,≥ 5 µM
same,Kd,HLA-B*40:01,≥ 5 µM
same,Kd,HLA-B*44:02,≥ 5 µM
same,Kd,HLA-B*58:01,≥ 5 µM
